# B1: 单链抗体FnAb12 (scFv)
# scFv: DIQLTQSPSSLSASVGDRVTLTCQATQDIDNNLNWYQQKPGKAPKLLIYDASNLETGVPSRFSGSGSGTDFTFTISDLQPEDVATYYCQQYYNLPLTFGGGTKVDIKRSRGGGGSGGGGSGGGGSLEMAEVQLVQSGAEVKKPGASVKVSCKASGYTFTSYDINWVRQATGQGLEWMGWMNPNSGNTGYAQKFQGRVTMTRNTSISTAYMELSSLRSEDTAVYYCARGVDLGDGWGQGTLVTVSS
# notes: Single-chain antibody from a phage library; also called FnAb12抗体; 单克隆抗体FnAb12
# Biological target: T1, hFcRn&b2M蛋白 (human, UniProt P55899 24-297; P61769 21-119, limits assumed)
# T1 construct: also called hFcRn&β2M; hFcRn蛋白
# Test: affinity measurement at pH 6.0, hFcRn&b2M as ligand, scFv as sample (method not named)
# T1 sequence (P55899 24-297 limits assumed, chain 1 of 2): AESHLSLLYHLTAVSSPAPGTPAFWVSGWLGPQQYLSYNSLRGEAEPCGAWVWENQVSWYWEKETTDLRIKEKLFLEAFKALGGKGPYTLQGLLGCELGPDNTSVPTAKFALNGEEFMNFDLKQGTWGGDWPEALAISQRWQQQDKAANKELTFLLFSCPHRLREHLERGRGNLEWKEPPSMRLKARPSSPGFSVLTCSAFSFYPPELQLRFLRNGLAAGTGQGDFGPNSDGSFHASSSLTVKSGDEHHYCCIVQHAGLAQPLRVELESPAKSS
# T1 sequence (P61769 21-119 limits assumed, chain 2 of 2): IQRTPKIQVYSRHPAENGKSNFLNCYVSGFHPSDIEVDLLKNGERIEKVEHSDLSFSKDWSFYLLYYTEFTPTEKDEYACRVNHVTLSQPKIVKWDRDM
binder,measurement,value
B1,Kd,15 nM

# From patent publication CN106957364A (UNIV SHANGHAI JIAOTONG, dated 2017)
